These are literature values, as cited in paper PMC3124085.

pKd: −log10 of the molar value.

This series deals with HIV-1 Gag p6 p6 (Human immunodeficiency virus 1) (UniProt O93182).
Chain of HIV-1 Gag p6 p6 (Human immunodeficiency virus 1) (O93182 450-500): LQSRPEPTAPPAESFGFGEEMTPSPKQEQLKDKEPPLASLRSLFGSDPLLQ

Chain of TSG101 UEV (Q99816 1-148): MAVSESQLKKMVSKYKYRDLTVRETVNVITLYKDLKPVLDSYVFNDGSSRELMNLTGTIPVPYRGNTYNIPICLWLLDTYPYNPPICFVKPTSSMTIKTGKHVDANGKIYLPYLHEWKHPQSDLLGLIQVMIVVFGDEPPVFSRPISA

For the substance TSG101 UEV (from UniProt Q99816), the negative logarithm of the Kd (pKd) was 4.57.

As usually defined, the pKd is the negative decadic logarithm of the Kd, by convention in mol/L.
